Laboratory results taken from patent US20240132578A1.

Key:
Assay in all cases: cell-based or functional assay
[1] = target: HIV-1 92BR020 Env (HIV-1)
[2] = target: HIV-1 Env of isolate MGRM-D-005 (HIV-1)
[3] = target: HIV-1 Env of isolate MGRM-G-011 (subtype G) (HIV-1)
[4] = target: HIV-1 Env of pseudovirus isolate MGRM-Chronic-B-008 (clade B) (HIV-1)
[5] = target: HIV-1 Env of pseudovirus MGRM-D-013 (HIV-1)
[6] = target: HIV-1 Env of pseudovirus MGRM-D-020 (HIV-1)
[7] = target: HIV-1 Env of pseudovirus MGRM-F1-008 (HIV-1)
[8] = target: HIV-1 Env of pseudovirus MGRM-F1-012 (HIV-1)
[9] = target: HIV-1 Env of pseudovirus MGRM-F1-020 (HIV-1)
[10] = target: HIV-1 envelope glycoprotein (Env) of isolate MG RM-AG-002 (HIV-1)
[11] = target: HIV-1 envelope glycoprotein (Env) of isolate MG RM-AG-005 (HIV-1)
[12] = target: HIV-1 envelope glycoprotein (Env) of isolate MG RM-AG-006 (HIV-1)
[13] = target: HIV-1 92RW021 envelope glycoprotein (Env) on pseudovirus (HIV-1 (clade A))
[14] = target: HIV-1 APV-6 envelope (Env) on pseudovirus (HIV-1)
[15] = target: HIV-1 Env of isolate 6535.3 (Acute), clade B (HIV-1)
[16] = target: HIV-1 Env of isolate 92RW008 (clade A pseudovirus) (HIV-1)
[17] = target: HIV-1 Env of isolate MGRM-A-014 (clade A pseudovirus) (HIV-1)
[18] = target: HIV-1 Env of isolate MGRM-D-004 (clade D pseudovirus) (HIV-1)
[19] = target: HIV-1 Env of pseudovirus MGRM-G-016 (HIV-1)
[20] = target: HIV-1 Env of pseudovirus MGRM-G-024 (HIV-1)
[21] = target: HIV-1 MGRM-AE-006 Env (pseudovirus) (HIV-1)
[22] = target: HIV-1 MGRM-AG-001 Env (pseudovirus) (HIV-1)
[23] = target: HIV-1 MGRM-G-009 Env (pseudovirus) (HIV-1)
[24] = target: HIV-1 Env of isolate MGRM-AG-009 (subtype AG) (HIV-1)
[25] = target: HIV-1 Env of isolate MGRM-AG-012 (subtype AG) (HIV-1)
[26] = target: HIV-1 Env of isolate MGRM-Chronic-B-008 (HIV-1)
[27] = target: HIV-1 Env of isolate MGRM-D-024 (HIV-1)
[28] = target: HIV-1 Env of isolate MGRM-D-028 (HIV-1)
[29] = target: HIV-1 Env of isolate MGRM-F1-013 (HIV-1)
[30] = target: HIV-1 Env of isolate MGRM-F1-014 (HIV-1)
[31] = target: HIV-1 Env of isolate VLGCA1 (subtype A) (HIV-1)
[32] = target: HIV-1 Env of pseudovirus isolate MGRM-C-015 (clade C) (HIV-1)
[33] = target: HIV-1 JR-CSF Env N392Q (HIV-1 (isolate JR-CSF)) (UniProt P20871)
[34] = target: HIV-1 envelope glycoprotein (Env) of isolate 93UG077, subtype A (HIV-1)
[35] = target: HIV-1 envelope glycoprotein (Env) of isolate MG RM-A-005, subtype A (HIV-1)
[36] = target: HIV-1 envelope glycoprotein (Env) of isolate MG RM-A-007, subtype A (HIV-1)
[37] = target: HIV-1 envelope glycoprotein (Env) of isolate MG RM-A-009, subtype A (HIV-1)
[38] = target: HIV-1 envelope glycoprotein (Env) of isolate MGRM-AE-003, subtype AE (HIV-1)
[39] = target: HIV-1 envelope glycoprotein (Env) of isolate MGRM-Chronic-B-011, on pseudovirus (HIV-1)
[40] = target: HIV-1 envelope glycoprotein (Env) of isolate MGRM-Chronic-B-017, on pseudovirus (HIV-1)

4980_N08 (PGT-143) (antibody)
IC50, pseudovirus neutralization [1]: > 10 µg/mL | IC50 (µg/mL), pseudovirus neutralization [2]: 1.41 µg/mL | IC50 (µg/mL), pseudovirus neutralization [3]: 0.074 µg/mL | IC50, pseudovirus neutralization [4]: > 50 µg/mL

4970_K22 (PGT-144) (antibody)
IC50, pseudovirus neutralization [1]: > 10 µg/mL | IC50 (µg/mL), pseudovirus neutralization [2]: 14.8 µg/mL | IC50 (µg/mL), pseudovirus neutralization [3]: 1.58 µg/mL | IC50, pseudovirus neutralization [4]: > 50 µg/mL

PGT-143 (4980_N08) (antibody)
IC50, pseudovirus neutralization [5]: 0.386 µg/mL | IC50, pseudovirus neutralization [6]: > 50 µg/mL | IC50, pseudovirus neutralization [7]: 0.189 µg/mL | IC50, pseudovirus neutralization [8]: > 50 µg/mL | IC50, pseudovirus neutralization [9]: 0.98 µg/mL | IC50 [10]: 0.076 µg/mL | IC50 [11]: 1.11 µg/mL | IC50 [12]: > 50 µg/mL

1496_C09 (PG9) (TCN-109) (antibody)
IC50 (µg/ml), pseudovirus neutralization [13]: 0.05 µg/mL | neutralization IC50 [14]: 0.0869 µg/mL | IC50 (µg/ml), pseudovirus neutralization [15]: 0.22 µg/mL | IC50 (µg/ml), pseudovirus neutralization [16]: 0.01 µg/mL | IC50 (µg/ml), pseudovirus neutralization [17]: 0.62 µg/mL | IC50, pseudovirus neutralization [18]: 0.03 µg/mL | IC50 (µg/mL), pseudovirus neutralization [3]: 0.335 µg/mL | IC50 (µg/ml), pseudovirus neutralization [19]: 0.4 µg/mL | IC50 (µg/ml), pseudovirus neutralization [20]: 0.07 µg/mL | IC50 (µg/ml), pseudovirus neutralization [21]: 0.05 µg/mL | IC50 (µg/ml), pseudovirus neutralization [22]: 8.83 µg/mL | IC50 (µg/ml), pseudovirus neutralization [23]: 4.9 µg/mL

5147_N06 (PGT-130) (antibody)
IC50, pseudovirus neutralization [1]: 1.12 µg/mL | IC50, pseudovirus neutralization [24]: 9.46 µg/mL | IC50, pseudovirus neutralization [25]: > 50 µg/mL | IC50 (µg/mL), pseudovirus neutralization [26]: 5.18 µg/mL | IC50 (µg/mL), pseudovirus neutralization [27]: > 50 µg/mL | IC50 (µg/mL), pseudovirus neutralization [28]: 0.825 µg/mL | IC50 (µg/mL), pseudovirus neutralization [29]: > 50 µg/mL | IC50 (µg/mL), pseudovirus neutralization [30]: 11.8 µg/mL | IC50, pseudovirus neutralization [31]: > 50 µg/mL | IC50, pseudovirus neutralization [32]: 0.344 µg/mL | Fold IC50 increase relative to wild-type (pseudovirus neutralization) [33]: 1.2 fold

5145_B14 (PGT-127) (antibody)
Fold IC50 increase relative to wild-type (pseudovirus neutralization) [33]: 1.1 fold | IC50, pseudovirus neutralization [34]: 0.055 µg/mL | IC50, pseudovirus neutralization [35]: > 50 µg/mL | IC50, pseudovirus neutralization [36]: > 50 µg/mL | IC50, pseudovirus neutralization [37]: 0.013 µg/mL | IC50, pseudovirus neutralization [38]: > 50 µg/mL | IC50, pseudovirus neutralization [39]: 0.297 µg/mL | IC50, pseudovirus neutralization [40]: > 50 µg/mL

5123_A06 (PGT-125) (antibody)
IC50, pseudovirus neutralization [1]: 0.0214 µg/mL | Fold IC50 increase relative to wild-type (pseudovirus neutralization) [33]: 1.2 fold | IC50, pseudovirus neutralization [34]: 0.012 µg/mL | IC50, pseudovirus neutralization [35]: > 50 µg/mL | IC50, pseudovirus neutralization [36]: > 50 µg/mL | IC50, pseudovirus neutralization [37]: 0.009 µg/mL | IC50, pseudovirus neutralization [38]: 0.092 µg/mL | IC50, pseudovirus neutralization [39]: 3.23 µg/mL | IC50, pseudovirus neutralization [40]: > 50 µg/mL

5141_B17 (PGT-126) (antibody)
IC50, pseudovirus neutralization [1]: 0.0163 µg/mL | Fold IC50 increase relative to wild-type (pseudovirus neutralization) [33]: 1.6 fold | IC50, pseudovirus neutralization [34]: 0.02 µg/mL | IC50, pseudovirus neutralization [35]: > 50 µg/mL | IC50, pseudovirus neutralization [36]: > 50 µg/mL | IC50, pseudovirus neutralization [37]: 0.004 µg/mL | IC50, pseudovirus neutralization [38]: > 50 µg/mL | IC50, pseudovirus neutralization [39]: 0.108 µg/mL | IC50, pseudovirus neutralization [40]: > 50 µg/mL

PGT-144 (4970_K22) (antibody)
IC50, pseudovirus neutralization [5]: > 50 µg/mL | IC50, pseudovirus neutralization [6]: > 50 µg/mL | IC50, pseudovirus neutralization [7]: 0.507 µg/mL | IC50, pseudovirus neutralization [8]: > 50 µg/mL | IC50, pseudovirus neutralization [9]: 8.93 µg/mL | IC50 [10]: 7.78 µg/mL | IC50 [11]: > 50 µg/mL | IC50 [12]: > 50 µg/mL

5345_I01 (PGT-137) (antibody)
IC50, pseudovirus neutralization [24]: > 50 µg/mL | IC50, pseudovirus neutralization [25]: > 50 µg/mL | IC50 (µg/mL), pseudovirus neutralization [26]: > 50 µg/mL | IC50 (µg/mL), pseudovirus neutralization [27]: > 50 µg/mL | IC50 (µg/mL), pseudovirus neutralization [28]: > 50 µg/mL | IC50 (µg/mL), pseudovirus neutralization [29]: > 50 µg/mL | IC50 (µg/mL), pseudovirus neutralization [30]: > 50 µg/mL | IC50, pseudovirus neutralization [31]: > 50 µg/mL | IC50, pseudovirus neutralization [32]: 1.98 µg/mL
